Legend:
[1] = target: T1, recombinant human SLPI (Amgen)
T1 chain: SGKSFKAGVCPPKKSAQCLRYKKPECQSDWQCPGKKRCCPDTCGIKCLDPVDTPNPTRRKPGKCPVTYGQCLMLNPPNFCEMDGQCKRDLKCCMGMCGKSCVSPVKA

[2] = target: T2, recombinant mouse SLPI (Amgen)
T2 chain: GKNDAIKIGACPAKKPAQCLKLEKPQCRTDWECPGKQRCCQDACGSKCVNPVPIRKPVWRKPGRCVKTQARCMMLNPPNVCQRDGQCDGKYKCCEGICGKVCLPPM

[3] = target: T3, PEPI in human bronchoalveolar lavage (BAL) fluid (human, UniProt P28799 18-593); test: immunoprecipitation of PEPI from BAL fluids of two individuals, anti-SLPI blot
T3 construct: Endogenous protein, immunoprecipitated with antiserum against human PEPI; also called proepithelin
T3 sequence (looked up): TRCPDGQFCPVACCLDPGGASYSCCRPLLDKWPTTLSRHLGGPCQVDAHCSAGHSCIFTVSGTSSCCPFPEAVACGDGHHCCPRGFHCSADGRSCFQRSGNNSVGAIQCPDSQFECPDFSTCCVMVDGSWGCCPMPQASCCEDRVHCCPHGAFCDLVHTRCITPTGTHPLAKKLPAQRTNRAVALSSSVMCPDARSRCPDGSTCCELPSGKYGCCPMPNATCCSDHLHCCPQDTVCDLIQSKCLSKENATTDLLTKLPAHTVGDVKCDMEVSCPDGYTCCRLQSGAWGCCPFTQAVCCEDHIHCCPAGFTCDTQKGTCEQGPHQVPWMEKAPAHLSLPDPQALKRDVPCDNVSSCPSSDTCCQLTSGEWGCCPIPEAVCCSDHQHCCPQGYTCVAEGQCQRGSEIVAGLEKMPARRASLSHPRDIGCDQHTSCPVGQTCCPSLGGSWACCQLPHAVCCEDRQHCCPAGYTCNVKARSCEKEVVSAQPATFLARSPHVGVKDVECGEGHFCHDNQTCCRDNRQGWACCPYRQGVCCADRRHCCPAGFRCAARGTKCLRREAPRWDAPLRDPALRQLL
Description: BAL fluids were collected from healthy adult subjects according to an institutional review board-approved protocol following informed consent. The fluids (45 ml each) were concentrated to 0.5 ml in a Centriprep (Millipore) with 10 kDa cut-off before immunoprecipitation with antiserum against human PEPI and western blotting with antisera against human SLPI or human PEPI.
To test if a SLPI-PEPI complex exists in vivo normal human bronchoalveolar lavage (BAL) fluid samples were examined because both SLPI and PEPI are strongly expressed in airway epithelium (Abe et al., 1991; Daniel et al., 2000). PEPI was immunoprecipitated from the BAL fluids collected from two individuals, and SLPI was detected in the PEPI immunoprecipitates (FIG. 2D). Thus, the SLPI-PEPI complex is physiologic.

[4] = target: T4, recombinant human SLPI (Amgen) (human, UniProt P03973 26-132); test: reciprocal co-immunoprecipitation of pure recombinant proteins (anti-FLAG M2 and anti-SLPI), western blot
T4 construct: Obtained from Amgen; also called SLPIwt; wild type human SLPI
Excerpt: PEPI and SLPI were transiently expressed in HEK293 or COS-1 cells. FLAG-tagged PEPI (aa 18-593) was expressed from pCMVI-FLAG and SLPI constructs from pcDNA3.1 (Invitrogen). SLPI constructs included mouse full length (aa 1-131), mouse N-terminal domain (aa 1-80), mouse C-terminal domain (aa 1-25/81-131), and human full-length (aa 1-131). Three days following co-transfection via SuperFect reagent (Qiagen), conditioned media were immunoprecipitated with FLAG M2 antibody (Sigma), separated by reducing SDS-PAGE and western blotted with anti-SLPI antibody (Jin et al., 1997). For in vitro immunoprecipitation assays, recombinant human PEPI or EPI (FLAG-tagged) and SLPI (5 pmol each) were incubated in 10 mM Tris-HCl (pH 7.5), 150 mM NaCl at 37° C. for 30 min before immunoprecipitation with anti-FLAG M2 antibody and western blotting with anti-SLPI antibody or the reverse.
Next, experiments were performed to ascertain which part of PEPI binds to SLPI (for the order of EPIs in PEPI, see FIG. 1A). EPIs G and F were absent in the partial PEPI sequences isolated as SLPI-binding proteins in yeast (FIG. 1A) and thus were dispensable for the interaction. […] When FLAG-tagged recombinant human EPI A or EPI B was incubated with recombinant human SLPI at an equimolar ratio (FIG. 2E) or at a molar ratio of A (or B):SLPI::1:5 (not shown), SLPI was not detected in EPI immunoprecipitates or vice versa. […]

[5] = target: T5, partial mouse PEPI (1180 bp of the ORF) in fusion with the activation domain of GAL4 (GAL4-AD), 21 two-hybrid … (yeast; mouse, UniProt P28798 197-589, limits assumed); test: yeast two-hybrid, growth without histidine and LacZ expression
T5 construct: EPIs G and F absent; also called proepithelin
T5 sequence: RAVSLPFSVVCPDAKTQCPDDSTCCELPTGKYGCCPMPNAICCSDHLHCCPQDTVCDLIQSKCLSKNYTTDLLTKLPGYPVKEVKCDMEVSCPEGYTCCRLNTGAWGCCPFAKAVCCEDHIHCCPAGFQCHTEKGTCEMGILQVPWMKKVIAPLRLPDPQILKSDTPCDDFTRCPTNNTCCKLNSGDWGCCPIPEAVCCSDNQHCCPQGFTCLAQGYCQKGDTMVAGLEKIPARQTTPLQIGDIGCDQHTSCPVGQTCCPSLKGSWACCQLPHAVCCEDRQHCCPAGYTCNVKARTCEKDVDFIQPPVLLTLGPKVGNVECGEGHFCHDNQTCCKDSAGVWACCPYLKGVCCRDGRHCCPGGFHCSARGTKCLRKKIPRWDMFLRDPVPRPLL

B1: human neutrophil elastase (Sigma) (protein)
chain: IVGGRRARPHAWPFMVSLQLRGGHFCGATLIAPNFVMSAAHCVANVNVRAVRVVLGAHNLSRREPTRQVFAVQRIFENGYDPVNLLNDIVILQLNGSATINANVQVAQLPAQGRRLGNGVQCLAMGWGLLGRNRGIASVLQELNVTVVTSLCRRSNVCTLVRGRQAGVCFGDSGSPLVCNGLIHGIASFVRGGCASGLYPDAFAPVAQFVNWIDSIIQ
For B1, the “cleavage of PEPI by elastase (anti-FLAG western blot)” value [1] was “human and mouse SLPI did block the cleavage of human PEPI by elastase, human SLPI being the more potent” and the “cleavage of PEPI by elastase (anti-FLAG western blot)” value [2] was “human and mouse SLPI did block the cleavage of human PEPI by elastase, human SLPI being the more potent”.

B2: SLPI in human bronchoalveolar lavage (BAL) fluid (other, UniProt P03973 26-132, looked up)
chain: SGKSFKAGVCPPKKSAQCLRYKKPECQSDWQCPGKKRCCPDTCGIKCLDPVDTPNPTRRKPGKCPVTYGQCLMLNPPNFCEMDGQCKRDLKCCMGMCGKSCVSPVKA
notes: Endogenous protein
B2: binds [3].

B3: recombinant human EPI A (aa 281-337) with an N-terminal FLAG-6xHis tag, from insect cells (other)
chain: DVKCDMEVSCPDGYTCCRLQSGAWGCCPFTQAVCCEDHIHCCPAGFTCDTQKGTCEQ
notes: the construct is stated as aa 281-337; also called epithelin A; not shown: N-terminal FLAG-6xHis tag
B3: no binding [4].

B4: recombinant human EPI B (aa 206-261) with an N-terminal FLAG-6xHis tag, from insect cells (other)
chain: VMCPDARSRCPDGSTCCELPSGKYGCCPMPNATCCSDHLHCCPQDTVCDLIQSKCL
notes: also called epithelin B; not shown: N-terminal FLAG-6xHis tag
B4: no binding [4].

B5: lamin C (other, UniProt P02545-2 67-230, looked up)
chain: EEVVSREVSGIKAAYEAELGDARKTLDSVAKERARLQLELSKVREEFKELKARNTKKEGDLIAAQARLKDLEALLNSKEAALSTALSEKRTLEGELHDLRGQVAKLEAALGEAKKQLQDEMLRRVDAENRLQTMKEELDFQKNIYSEELRETKRRHETRLVEID
notes: Non-specific control in the yeast two-hybrid test
B5: no binding [5].
